In assay [1] the target is HLA-A*80:01. The experiment in a line: IEDB peptide-MHC binding, purified MHC/direct/fluorescence; filed as Kd, often an IC50 or EC50 that approximates it; ≥ and ≤ were set here for values at or beyond the usual limits of such assays.
The target of assay [2] is HLA-C*12:03. Described as above.
The target of assay [3] is HLA-B*15:02. The assay is described as follows: IEDB peptide-MHC binding, purified MHC/competitive/fluorescence; filed as Kd, often an IC50 or EC50 that approximates it; ≥ and ≤ were set here for values at or beyond the usual limits of such assays. The settings on record: source organism: Shigella boydii CDC 3083-94.
Assay [4] has as its target HLA-A*02:01. The assay is described as follows: IEDB peptide-MHC binding, purified MHC/direct/fluorescence; filed as Kd, often an IC50 or EC50 that approximates it; ≥ and ≤ were set here for values at or beyond the usual limits of such assays.
The target of assay [5] is HLA-A*02:03. Described as above.
Assay [6] concerns the target HLA-A*02:12. Described as above.
Assay [7] concerns the target HLA-A*02:16. The description is as above.
Assay [8] addresses HLA-A*02:19. Described as above.
For assay [9], the target named is HLA-A*03:01. The description is as above.
Assay [10] concerns the target HLA-A*26:01. The assay is described as above.
For assay [11], the target named is HLA-B*15:01. The assay is described as above.
In assay [12] the target is HLA-B*18:01. Described as above.
Assay [13] has as its target HLA-B*27:03. Described as above.
Assay [14] addresses HLA-B*39:01. The description is as above.
For assay [15], the target named is HLA-B*46:01. The description is as above.
For assay [16], the target named is HLA-B*51:01. Described as above.
Assay [17] has as its target HLA-B*57:01. The description is as above.
The target in assay [18] is HLA-A*01:01. Described as above. The settings on record: source organism: Orthohantavirus negraense.
For assay [19], the target named is HLA-A*02:11. Described as above.
The target in assay [20] is HLA-A*23:01. Described as above.
The target in assay [21] is HLA-A*24:03. Described as above.
The target in assay [22] is HLA-A*29:02. The assay is described as above.
For assay [23], the target named is HLA-A*68:02. The assay is described as above.
The target of assay [24] is HLA-B*07:02. The assay is described as above.
Assay [25] has as its target HLA-B*08:01. The assay is described as above. To be noted: source organism: Orthohantavirus negraense.
The target in assay [26] is HLA-B*27:05. Described as above. The settings on record: source organism: Orthohantavirus negraense.
Assay [27] has as its target HLA-B*40:01. The assay is described as above. To be noted: source organism: Orthohantavirus negraense.
The target in assay [28] is HLA-B*48:01. Described as above. The settings on record: source organism: Orthohantavirus negraense.
The target in assay [29] is HLA-A*26:01. The experiment in a line: IEDB peptide-MHC binding, purified MHC/competitive/fluorescence; filed as Kd, often an IC50 or EC50 that approximates it; ≥ and ≤ were set here for values at or beyond the usual limits of such assays. To be noted: source organism: Orthohantavirus tulaense.
Assay [30] addresses HLA-A*69:01. The assay is described as above. To be noted: source organism: Orthohantavirus tulaense.
The target of assay [31] is HLA-B*27:03. The description is as above. The settings on record: source organism: Orthohantavirus tulaense.
Assay [32] concerns the target HLA-B*39:01. Described as above. The settings on record: source organism: Orthohantavirus tulaense.
Assay [33] concerns the target HLA-B*51:01. Described as above. The settings on record: source organism: Orthohantavirus tulaense.
Assay [34] deals with HLA-A*69:01. The experiment in a line: IEDB peptide-MHC binding, purified MHC/direct/fluorescence; filed as Kd, often an IC50 or EC50 that approximates it; ≥ and ≤ were set here for values at or beyond the usual limits of such assays. The settings on record: source organism: Coxiella burnetii Q321.
Assay [35] addresses HLA-B*15:17. Described as above.
Assay [36] has as its target HLA-B*35:01. The assay is described as above. To be noted: source organism: Coxiella burnetii Q321.
The target in assay [37] is HLA-C*05:01. Described as above. The settings on record: source organism: human gammaherpesvirus 4.
Assay [38] concerns the target HLA-C*08:02. The assay is described as above. To be noted: source organism: human gammaherpesvirus 4.
Where [39] appears, read: source organism: Cryptosporidium parvum Iowa II.
[40] abbreviates: source organism: Orthohantavirus negraense.
Where [41] appears, read: source organism: Orthohantavirus tulaense.
Where [42] appears, read: source organism: Coxiella burnetii Q321.
The mark [43] stands for this setting: source organism: Toxoplasma gondii RH.

For 8 sequences, Kd results are on record in the Immune Epitope Database (IEDB).

The Kd is the concentration at which binding is half-saturated.

MTGVMRGNY showed a Kd in [1] (source organism: Yellow fever virus strain Ghana/Asibi/1927) of 0.38 µM.

For the sequence FMAAFYRVM, the figures for the Kd in assay [2] (source organism: Shigella boydii CDC 3083-94) and in assay [3] were ≤ 0.001 µM and 0.0183 µM, respectively.

Regarding LPWFLDTTI, the Kd in assay [4] (setting [39]), in assay [5] (setting [39]), in [6] (setting [39]), in [7] (setting [39]), in [8] (setting [39]) and in assay [9] (setting [39]) was ≥ 20 µM each time. Further, the Kd in assay [10] (setting [39]), in [11] (setting [39]), in [12] (setting [39]), in assay [13] (setting [39]), in assay [14] (setting [39]) and in [15] (setting [39]) was ≥ 20 µM throughout. Further, the Kd in [16] (setting [39]) is 0.034 µM; in assay [17] (setting [39]), ≥ 20 µM.

Regarding MSRKLHRYI, the equilibrium dissociation constant (Kd) in assay [18], in assay [4] (setting [40]), in assay [19] (setting [41]), in [6] (setting [41]), in [9] (setting [41]) and in assay [20] (setting [41]) was ≥ 20 µM each time. The Kd in [21] (setting [41]) was ≥ 20 µM; in [22] (setting [40]), ≥ 20 µM; in assay [23] (setting [41]), ≥ 20 µM; in [24] (setting [40]), ≥ 20 µM; in [25], 4.71 µM; in [11] (setting [40]), ≥ 20 µM. The dissociation constant (Kd) was ≥ 20 µM in assay [12] (setting [40]); ≥ 20 µM in [26]; ≥ 20 µM in assay [27]; ≥ 20 µM in assay [15] (setting [40]); ≥ 20 µM in assay [28]; 0.441 µM in assay [2] (setting [41]). Besides, the Kd in assay [29], in [30], in assay [31], in [32] and in assay [33] was ≥ 20 µM throughout.

As to DGAEGINPY, the Kd in [4] (setting [42]), in [5] (setting [42]), in assay [19] (setting [42]), in assay [6] (setting [42]), in [7] (setting [42]) and in assay [8] (setting [42]) was ≥ 20 µM in each case. Moreover, the Kd in assay [9] (setting [42]), in [20] (setting [42]), in assay [21] (setting [42]), in [10] (setting [42]), in assay [22] (setting [42]) and in assay [23] (setting [42]) was ≥ 20 µM throughout. In addition, the equilibrium dissociation constant (Kd) is ≥ 20 µM in assay [34]; 8.58 µM in assay [24] (setting [42]); 11 µM in [11] (setting [42]); ≥ 20 µM in assay [35] (setting [42]); ≥ 20 µM in assay [12] (setting [42]); ≥ 20 µM in [13] (setting [42]). In addition, the Kd in [36] was 0.267 µM; in [14] (setting [42]) it was ≥ 20 µM; in assay [15] (setting [42]) it was ≥ 20 µM; in assay [16] (setting [42]), ≥ 20 µM; in assay [17] (setting [42]) it was ≥ 20 µM.

For HSEEGSRAY, the Kd in [1] (source organism: Yellow fever virus) is ≥ 20 µM.

With LTMNLVSDI, the dissociation constant Kd in [9] (setting [43]) was ≥ 20 µM; in assay [21] (setting [43]), ≥ 20 µM; in [10] (setting [43]), ≥ 20 µM; in assay [11] (setting [43]), ≥ 20 µM; in [35] (setting [43]), 0.003 µM; in assay [12] (setting [43]), ≥ 20 µM. In addition, the Kd in [13] (setting [43]), in assay [14] (setting [43]), in assay [15] (setting [43]) and in assay [17] (setting [43]) was ≥ 20 µM throughout.

Consider YAAPQLFPV, for which the Kd is 0.065 µM in assay [37], 0.069 µM in assay [38] and 0.004 µM in [2] (source organism: human gammaherpesvirus 4).
